# Reference: patent publication US20240352438A1, “MEANS AND METHODS FOR DETOXIFYING OCHRATOXIN A” (DSM Austria GmbH, priority 2021, published 2024)
# B1: 25 (protein)
# chain: MFDLGIKNGNVFSGKDNLGKTNIYVNNGKIVKISKENLEVRQEIDAKDMFVMPGLIDSHIHLSGIKGGSLLKIMFEKPEYRILRASKWLEKLLLAGFTTVRDCGDPISISLAKGVKDGIIIGPNIIAAGRPITQTFGHGEISHDIPLEFSEVLGFSEICDGVESCIHSARKVLREGSDFIKIFATGGVLSQRDRPENPQLTYEEIKSIVNEAEKIGTYVAAHAHGDKGARIAIEAGIKTLEHGTMLKDDTMKLMIEKDVSLTPTLTIQEVIYKYGKQIGVDEWGLEKITEVRNSISSVVKKAKEYGIRIITGTDLGFETGLSDIDIGKNWVELTLLVERGGLTPKEALQAATYNSALSLRINSGLIDTDRNADIIIIDGDPEENISDIAKIDHVIKNGNIIVEKGKIINYS
# modifications: exemplary polypeptide
# B2: 27 (protein)
# chain: MDILIKGGQVFNGKDFIGKANVYIKYGKIVEVSKEVKEAKEEIDARDMFVMPGLIDAHIHLSGIKGGSLMKTMFERPEYRVLRASKWLEKLLLAGFTTVRDCGEYVSLALKRAVQEGTIKGSNIIAAGRPVTQTFGHGEISHDIPLEFSHKVGFSEFCDGTESCIHAARKILRDGSDFIKVFATGGVLSQRDKPENPQLSYDEIKAIVNEAHKVGTYVAAHAHGDAGAKIAVEAGVKTIEHGTLLKDDTLKLMVNKGVSLTPTLTIQEVIYRYGKQIGVDEWGLQKIFEVRERVADVVKKAKDYGVLMISGTDLGFETGLWDIDMGKNWYELVLLVERGGLTPKEALTTATYNSSIALGINSGFIDIGKEGDLVVIDGNPLENIYDIAKVTHVLKAGRVEVRNGKLESK
# modifications: exemplary polypeptide
# B3: 24 (protein)
# chain: MELAIRNGIVFNGKEIIGKTNIYVREGKIVEVSREDHSAKMEIDAKDMFVMPGLIDAHIHLSGIKGGSLLKIMFEKPEYRVLRAAKWLEKLLLAGFTTVRDCGETVSLALKRALNDGIIGGPKVIAAGKPITQTFGHGELSHDVPLEFSKTMSFSEFCDGMESCIHAARKVLRDGADFIKIFATGGVLSQRDRPEHPQLSYEEIRAIVNEAEKVNTYVAAHAHGDRGARIAIEAGVKTLEHGTLLKDETLKLMKEKNVTLTPTLTIQELIFKYGKQIGVDEWGLQKITSVRENIANVVRKAKEYGVTIISGTDLGFETGLEEIDMGKNWMETVLLVERGGLSPIEALRASTYNAAMAIGINAGVIEIGKDADIIIINGDPTLNVREISKITHVVKNGKLTVENKSIKG
# modifications: exemplary polypeptide
# B4: 31 (protein)
# chain: MELAIRNGIVFNGKEVIGKTNIYVREGKIVEVSREDHSAKMEIDAKDMFVMPGLIDAHIHLSGIKGGSLLKIMFEKPEYRVLRAAKWLEKLLLAGFTTVRDCGETVSLALKRAVNDGIVDGPKVIAAGKPITQTFGHGELSHDVPLEFSKTMSFSEFCDGMESCIHAARKVLRDGADFIKIFATGGVLSQRDTPEHPQLSYEEIRAIVNEAEKVNSYVAAHAHGDRGARIAIEAGVKTLEHGTLLKDETLKLMKEKNVTLTPTLTIQELIFKYGKQIGVDEWGLQKITSVRESIANVVRKAKEYGVTIISGTDLGFETGLEEIEMGKNWMETVLLVERGGLSPIEALRASTYNAAMAIGINAGVIEIGKDADIIIINGDPTQNVREISKITHVIKNGKLTVENKSIKG
# modifications: exemplary polypeptide
# B5: 30 (protein)
# chain: MELAIRNGIVFNGKEVIGKTNIYVREGKIVEVSREDHSAKMEIDAKDMFVMPGLIDAHIHLSGIKGGSLLKIMFEKPEYRVLRAAKWLEKLLLAGFTTVRDCGETVSLALKRAVNDGIIDGPKVIAAGKPITQTFGHGELSHDVPLEFSKTMSFSEFCDGMESCIHAARKVLRDGADFIKIFATGGVLSQRDTPEHPQLSYEEIRAIVNEAEKVNSYVAAHAHGDRGARIAIEAGVKTLEHGTLLKDETLKLMKEKNVTLTPTLTIQELIFKYGKQIGVDEWGLQKITSVRESIANVVRKAKEYGVTIISGTDLGFETGLEEIEMGKNWMETVLLVERGGLSPIEALRASTYNAAMAIGINAGVIEIGKDADIIIINGDPTQNVREISKITHVIKNGKLTVENKSIKG
# modifications: exemplary polypeptide
# B6: 33 (protein)
# chain: MELAIRNGIVFNGKEIIGKTNIYVREGKIVEVSREDHSAKMEIDAKDMFVMPGLIDAHIHLSGIKGGSLLKIMFEKPEYRVLSAAKWLEKLLLAGFTTVRDCGETVSLALKRALNDGIIGGPKVIAAGKPITQTFGHGELSHDVPLEFSKTMSFSEFCDGMESCIHAARKVLRDGADFIKIFATGGVLSQRDRPEHPQLSYEEIRAIVNEAEKVNTYVAAHAHGDRGARIAIEAGVKTLEHGTLLKDETLKLMKEKNVTLTPTLTIQELIFKYGKQIGVDEWGLQKITSVRENIANVVRKAKEYGVTIISGTDLGFETGLEEIDMGKNWMETVLLVERGGLSPIEALRASTYNAAMAIGINAGVIEIGKDADIIIINGDPTLNVREISKITHVVKNGKLTVENKSIKG
# modifications: exemplary polypeptide
# B7: 32 (protein)
# chain: MELAIRNGIVFNGKEVIGKTNIYVREEKIVEISREDHSAKMEIDAKDMFVMPGLIDAHIHLSGIKGGSLLKIMFEKPEYRVLRAAKWLEKLLLAGFTTVRDCGETVSLALKRALNDGIIDGPKVIAAGKPITQTFGHGELSHDVPLEFSKTMSFSEFCDGMESCIHAARKVLRDGADFIKIFATGGVLSQRDRPEHPQLSYEEIRAIVNEAEKVNTYVAAHAHGDRGARIAIEAGVKTLEHGTLLKDETLKLMKEKNVTLTPTLTIQELIFKYGKQIGVDEWGLQKITSVRENIANVVRKAKEYGVTIISGTDLGFETGLEEIDMGKNWMETVLLVERGGLSPIEALRASTYNAAMAIGINAGVIEIGKDADIIIINGDPTLNVREISKITHVIKNGKLTVENKSIKG
# modifications: exemplary polypeptide
# B8: 26 (protein)
# chain: MAFDIALKNGNIFNGKEFIGKSNIYINNGKIVKVSKEELDAKQEIDAMDMFVMPGLIDAHMHISGIKGGSLLKLMFERPEYRTIRATKWLEKLLLAGFTTVRDCGDPISISLAKAVKEGIIKGPNVIAAGRPITQTFGHGELSHDIPLEVSETTGFSEICDGTESCIHAARKVLREGSDFIKIFATGGVLSQRDKPENPQLTYDEIKVIVNEAEKVGTYVAAHAHGDKGARIAIEAGIKTLEHGTLLQDETLKLMIEKKVTLTPTLSIQEVIYRHGKEIGVDEWGLEKIAMVRDSISSVVKKAKDYGITIITGTDLGFETGLEDIDIGKNWMEIVLLIEIGGLTPVEALRAATYNSSIAININSGLIDSGKEADLIIINGNPLEDIKDISKVSYVIKDGKIEVEERKIKN
# modifications: exemplary polypeptide
# B9: 23 (protein)
# chain: MQYDVAIKNGNVFTGTEFIGKMNIYISNGKISKVSKEDLNAKQEIDAKDMLVMPGLIDAHMHISGLKGGSLLKIMFEKPEYRALRATKWLEKLLLAGFTTVRDCGEPISISLKRAVNEGYIKGPKIIAAGKPITQTFGHGEFSHDIPLEFSISLGFSEICDGTESCIHAARKVLRDGSDFIKIFATGGVLSQRDRPDMPQLSFDEIRAIVNEAEKAGTYVAAHAHGDKGARIAIEAGIKTLEHGSLLKEDTLKLMLEKNISLTPTLTITEIIYKYGKTIGVDEWGLEKIVEVRENLHKVLRKAKELGITIITGTHMGFETGLEDYDIGKNWTEILLLTEVGGLSNEEALRAATYNSAKALGLNSGLIDEGKDADIIVIDGNPLENIKDVSKVVHVIKQGKLEVLDSKIINNY
# modifications: exemplary polypeptide
# B10: 28 (protein)
# chain: MDISIKGGELFTGKELLGKFNIYIKDKKIVEISKEDKQAEVEVNAKDMFVMPGLIDAHIHLSGVKGGSLLKTMFEKPEYRVLRASKWLERLLLAGFTTVRDCGESISIALKRAVNEKIIKGPKIIAAGRPISQTFGHGELSHDLPLEFSKALSFSEFCDGVESCIHASRKVLREGADFIKIFATGGVLSQRDKPENPQLSYEEIKAIVNEAEKVNTYVAAHAHGDKGARIAIEAGVKTLEHGTLLRDDTLKLMVEKRVSLTPTLTIQELIYKYGKQIGVDEWGLEKINSVRESVAEVVRKAKEYGVLIINGTDLGFETGLDEIDMGKNWMETVLLVERGNLSNVEALRASTYNSAIAIGNDAGIIDIGRPADIIVINGNPSENIRDISKVVHVIKDGSLVVENKRLTDSL
# modifications: exemplary polypeptide
# B11: 29 (protein)
# chain: MDLGIKNGNVFNGKGVVGKVNIYVKDGKIVEISKENKQAKIEIDAKDMFVMPGLIDAHIHLTGIKGGSLLKTMFEKPEYRVLRASKWLEKLLLAGFTTVRDCGETISLALKRGVSEGIINGPRIIAAGKPISQTFGHGELSHDVPLEFSMALSFSEFCDGVESCIRASRKVLRDGADFIKIFATGGVLSQRDRPEHPQLSYEEISAIVNEAEKINTYVAAHAHGDKGARIAVEAGIKTLEHGTLLRDETLKLMRERNVTLTPTLTIQELIYKYGKQIGVDEWGLQKINEVRESVVNVVKKAEEYGVMIITGTDLGFETGLEEIDIGKNWMESVLLVERGGLSTISSLRASTYNSAFAIGINAGAIEVGKDADIIVIDGDPTENIRDLSKVRRVVKNGKLTVEDGKFL
# modifications: exemplary polypeptide
# Experiment: Thermostability assay: residual OTA detoxification activity after 10 min incubation at 45-99° C. (T50)
# Format: physicochemical
# Details: 0.1 mg/mL protein in 20 mM Tris-HCl pH 7.5, residual OTA detoxification activity relative to 4° C. reference aliquot
# Procedure: Stability was determined in terms of thermostability. Notwithstanding, a person having skill in the art is aware that stability towards high temperature (e.g. more than 30° C.) often correlates with stability towards other non-standard conditions such as stability towards acidic or basic pH (e.g. below pH 6.5 or above pH 7.5, respectively), towards elevated salt concentrations, organic solvents or drying.
# To determine the kinetic stability of the produced enzymes, thermostability assays were performed. To this end, purified protein samples were diluted to a protein concentration of 0.1 mg/mL in 20 mM Tris-HCl buffer pH 7.5 and aliquots were incubated in a thermocycler for 10 min at either 45, 55, 65, 75, 80, 85, 90, 95 or 99° C. After this incubation, the aliquots were stored at 4° C. until further analysis. A reference aliquot was stored at 4° C. throughout the incubation. Subsequently, all aliquots were assayed for residual OTA detoxification activity using the assay described in Example 3. Residual enzyme activities were calculated relative to the reference aliquot. The temperature range in which 50% of the initial activity was lost after the incubation (T50), in relation to the reference aliquot was determined.
row,Molecule,T50 (temperature at which 50% of the initial activity was maintained) [°C]
1,B1,>95
2,B2,>95
3,B3,>95
4,B4,>95
5,B5,>95
6,B6,>95
7,B7,>95
8,B8,>95
9,B9,>95
10,B10,>95
11,B11,>95
